Results from paper PMC10333379.

Target: human angiotensin-converting enzyme 2 (hACE2) with an Fc domain (human) (UniProt Q9BYF1)
Assay: BLI

Chain of UniProt Q9BYF1 (Q9BYF1 18-740): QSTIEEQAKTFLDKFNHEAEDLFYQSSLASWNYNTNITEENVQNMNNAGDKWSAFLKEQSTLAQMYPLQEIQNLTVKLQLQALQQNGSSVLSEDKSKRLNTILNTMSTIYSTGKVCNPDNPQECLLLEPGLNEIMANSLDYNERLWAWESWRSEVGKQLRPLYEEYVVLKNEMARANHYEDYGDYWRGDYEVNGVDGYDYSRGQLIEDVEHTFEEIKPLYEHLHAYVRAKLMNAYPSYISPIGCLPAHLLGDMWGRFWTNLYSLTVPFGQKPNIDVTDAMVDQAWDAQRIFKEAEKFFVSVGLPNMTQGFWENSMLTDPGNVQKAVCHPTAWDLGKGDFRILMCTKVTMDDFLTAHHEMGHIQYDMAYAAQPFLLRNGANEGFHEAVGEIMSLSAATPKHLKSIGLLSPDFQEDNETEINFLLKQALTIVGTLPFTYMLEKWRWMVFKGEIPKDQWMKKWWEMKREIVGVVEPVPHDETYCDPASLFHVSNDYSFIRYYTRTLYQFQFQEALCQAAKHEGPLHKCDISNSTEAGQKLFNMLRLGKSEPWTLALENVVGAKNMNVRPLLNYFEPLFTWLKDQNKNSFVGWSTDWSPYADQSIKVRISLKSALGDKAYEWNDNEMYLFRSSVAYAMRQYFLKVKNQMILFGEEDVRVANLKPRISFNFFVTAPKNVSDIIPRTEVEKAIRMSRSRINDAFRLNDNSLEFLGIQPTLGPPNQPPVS

Bat SARS-like coronavirus CX1 receptor-binding domain (RBD) of spike protein (domain or fragment)
Kd: 10.7 nM
